These results are taken from US20200031919A1 (SUZHOU KANOVA BIOPHARMACEUTICAL, published 2020).

The target in this test is T1, human IL-17A (human, UniProt Q16552 24-155).
T1 construct: Commercial recombinant protein; also called hIL-17A; CTLA-8
T1 sequence (looked up): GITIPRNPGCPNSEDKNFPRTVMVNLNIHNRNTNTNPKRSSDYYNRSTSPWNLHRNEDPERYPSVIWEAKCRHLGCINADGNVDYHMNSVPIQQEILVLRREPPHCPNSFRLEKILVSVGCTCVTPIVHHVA
The test can be described thus: SPR (Biacore T200), antibody captured by anti-human Fc, IL-17 as analyte. The protocol: Anti-human Fc gamma specific antibody (Jackson Immuno Research, Lot no. 124448, Code. 109-008-098) was immobilized onto the sensor chip using amine coupling method. Four antibodies secreted to the culture medium plus the parental antibody were injected and captured by anti-human Fc antibody via Fc (capture phase) individually. After equilibration, IL-17 was injected for 300 seconds (association phase) followed by the injection of running buffer for 1200s (dissociation phase). Responses of reference flow cell (flow cell 1) were subtracted from those of humanized antibodies flow cells during each cycle. The surface was regenerated before the injection of another humanized antibody. The process was repeated until all antibodies are analyzed. The off-rates of humanized antibodies were obtained from fitting the experimental data locally to 1:1 interaction model using the Biacore T200 evaluation software. The antibodies were ranked by their dissociation rate constants (off-rates, Kd). The binders that interact with IL-17 with similar affinity to parental antibody were selected.
(In SPR one partner is held on a chip, and binding of the other changes the refractive index at the surface.)

B1: humanized anti-IL17A/F antibody VH1-1/VL2-1 (antibody, V domains shown)
VH: QFQLVQSGAEVKKPGASVKVSCKASGYTFTDYNLNWVRQAPGKGLEWMGVIHPDYGTTSYNQKFKDRVTMTVDTSTSTVYMELSSLRSEDTAVYYCVRYDYGDAMDYWGQGTLVTVSS
VL: DIVMTQTPLSSSVTLGQPASISCRSSQSLVHSNGNTYLHWLQQRPGQPPRLLIYKVSNRFSGVPDRFSGSGAGTDFTLKISRVEAEDVGVYYCSQSTHVPLTFGQGTKLEIK
notes: It was tested as a humanized IgG captured through its Fc by an anti-human Fc antibody
As a reminder, the Kd is the concentration at which binding is half-saturated. Read a high Kd as a looser complex. Broadly, the koff is a measure of how fast the partners let go of each other. Low readings indicate slow dissociation, high ones fast dissociation. The term kon denotes the second-order rate constant of association. The molecule B1 showed a Kd of 0.84 nM, a koff of 0.0018 s⁻¹ and a kon of 2.2e+06 M⁻¹ s⁻¹.
